Assay [1] addresses Neisseria meningitidis quinol-dependent nitric oxide reductase, wild type (Neisseria meningitidis). Nature of the assay: native gel or EMSA; blue native PAGE of peak 1 and peak 2 fractions after concentration in 100 kDa cutoff devices; 5 and 10 ug loaded. (In general: A gel shift assay detects complexes by their altered migration in electrophoresis.)
Assay [2] addresses NmqNOR-BRIL (Neisseria meningitidis qNOR with apocytochrome b562 fused to its C-terminus) (Neisseria meningitidis). Nature of the assay: cryo-EM structure; NmqNOR-BRIL peak 1 at 4 mg/ml, no additional buffer components; C2 symmetry, 3.06 A.

“Neisseria meningitidis quinol-dependent nitric oxide reductase, wild type (enzyme)”: in assay [1], the stoichiometry N (commonly a count of units in the complex or per binding partner) worked out at 2. “NmqNOR-BRIL (Neisseria meningitidis qNOR with apocytochrome b562 fused to its C-terminus) (enzyme)” registered a stoichiometry N in assay [2] of 2.
